Measurements: the supplement of paper PMC10567573

B1: C20orf112 (parent)
chain: YANGGLNYSYRGYGALSSNLQPPA
B2: CLCN6 (parent)
chain: VGEIVGIITRHNLTYEFLQARLRQ

Variants of: B1
Assay: protein stability index of a GFP-peptide fusion (GPS, HEK-293T) (PSI 1-6); higher = more stable
Conditions: c terminus: a fixed tail appended
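Further: lentivirally expressed fusions sorted by FACS into six bins by GFP to DsRed ratio, PSI derived from sequencing read proportions per bin multiplied by bin number.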

Protein stability index of substitutions, site by site:
P23: T 1.6, V 1.84, R 1.81, W 2.61, M 2.3, D 2.09, G 2.6, S 1.65, I 2.09, L 1.54, K 1.97, C 1.92, E 2.05, Q 1.77, Y 1.9, H 1.34, A 1.81, N 2.17, F 2.52
S18: Q 2.6, W 2.07, Y 1.67, T 2.05, V 1.73, R 2.21
L20: M 1.52, V 1.84, Y 1.34, I 2.54, G 2.28, A 1.79, K 2.27, T 1.55, C 2.7, R 1.73, H 1.69, N 2.11, Q 1.71, E 1.37, D 1.36, F 1.55, W 1.84, S 2.34, P 1.88
N19: I 1.71, K 2.96, T 1.91, F 1.53, G 1.42, A 1.71, M 1.88, S 2.44, D 2.15, R 1.99, E 1.11, H 1.43, Y 1.57, Q 2.14, C 2.05, L 2.53, V 1.99, W 2.61, P 2.18
Q21: I 2.76, E 2.16, K 2.17, P 2.28, D 2.22, R 1.75, L 1.99, C 1.74, A 1.66, V 1.59, M 1.71, H 2.04, T 2.61, S 2.5, Y 2.29, F 2.26, W 1.75, N 1.64, G 1.21
P22: K 2.66, Q 2, S 1.62, H 1.94, E 2.41, L 2.27, Y 3.09, G 2.65, W 1.97, C 2.97, N 2.33, R 1.76, A 1.5, T 1.71, V 1.83, I 2.35, M 1.63, D 1.6, F 3.69
A24: F 1.78, V 2.23, G 3.04, H 2.19, Y 1.75, P 2.73, C 2.37, K 2, N 1.9, S 1.82, E 1.95, L 1.62, R 2.48, T 2.52, W 1.86, I 2.43, M 1.35, D 1.86, Q 2.27

Variants of: B2
Assay: as above
Conditions: c terminus: a fixed tail appended

Protein stability index: each site, then its substitutions
N12: I 1.15, Q 4, D 2.21, A 5, P 1.92, R 2.69, E 1.16, G 5.11, C 2.21, K 2.04, H 3.27
V5: M 3.11, R 2.55, N 1.75, H 1.92, P 2.46, Y 2.19, G 2.29, T 1.49, A 1.89, K 1.38, E 1.76, Q 1.37, S 1.83
G6: H 2.89, S 2.95, P 1.7, E 4.38, T 3.72
I8: N 3.2, Q 2.47, Y 1.21, E 3.29, R 2.64, C 1.16, G 2.2, S 2.65, H 1.79, L 2.03, A 1.27
R10: T 3.15, P 1.75, D 2.73, Y 1.93, E 2.92, N 2.88, K 2.19, L 4.12
T9: R 1.4, G 2.63, C 2.71, F 2.35, E 1.38, S 2.77, P 2.78, L 1.89, D 1.92, K 1.29, N 2.88
F17: C 1.8, I 2.02, G 3.15, T 1.87, H 1.04, E 2.01, P 2.11, S 2.71, Q 2.76
G2: A 3.29, L 2.48, H 2.81, T 2.6, E 1.75, P 1.86, N 3, M 1.09, Q 1.13, K 2.53, Y 1.98, D 2.23, V 2.66, W 3.19, C 2.06
I4: E 2.51, V 2.06, Y 2.53, T 1.75, G 2.33, D 2.66, P 2.88, M 2.33, S 2.23, F 1.52, R 2.72, K 2.15, L 2.59, C 2.18, Q 2.38, H 2.02, A 2.1, N 2.37
V1: N 3.06, Q 2.08, E 2.25, I 2.88, F 2.41, S 2.31, L 1.76, W 2.47, P 1.44, A 1.44, H 2.82, R 1.58, G 1.27, T 1.65, C 2.26, K 2.18, M 2.29, D 2.41, Y 2.83
H11: N 4.18, V 2.32, D 2.48, G 1.76
E16: H 2.17, S 2.17, L 3.17, W 3.79, R 2.46, Q 1.93, K 1.52, G 1.02, P 1.8
L18: Y 4.04, K 2.67, I 2.62, R 2.55, S 1.02, A 2.67, D 2.26, P 2.81, F 2.71, M 2.33, N 1.6, Q 2.07, E 3.96, G 1.58
E3: Q 3.17, C 2.72, R 2.51, V 2.62, F 1.43, D 2.05, Y 3.28, P 3.11, A 2.59, T 1.74, W 2.42, H 2.38
I7: T 1.73, D 2.38, N 2.18, P 2.56, Y 3.15, C 2.31, Q 2.72, A 1.77, K 1.7, L 2.53, H 2.05, G 2.44, E 2.07
T14: A 3.01, F 2.92, V 2.98, N 2.03, L 2.29, Y 3.07, E 1.22, Q 1.26
Q19: K 4.39, Y 1.01, P 1.62, I 3.35, G 1.52, E 2.47, S 2.49
A20: I 2.56, S 2.02, Q 2.04, L 2.08
L13: E 2.18, M 1.86, G 1.7, F 2.15, Q 1.69, A 1.63, H 1.51, V 2.04, W 3.73, C 2.08, P 1.94, N 1.08, I 3.13
Y15: G 1.65, F 2.95, P 1.62, R 4.35, V 1.63, Q 2.38, D 1.51, K 1.47, S 1.83, A 2.07
